Measurements published in US20240058465A1 (SUTRO BIOPHARMA, published 2024).

These binders were tested against T1, human ROR1 Frizzled domain (hROR1-Fz) (human, UniProt Q01973 165-305) (assay: SPR Biacore, IgG on anti-Fc, ROR1-Fz analyte).
T1 construct: Acro Biosystems, made in HEK293
Protocol: Anti-Fc polyclonal antibodies were immobilized onto a CMS chip (GE Life Sciences) using amine coupling chemistry (from Amine Coupling Kit, GE Life Sciences). The immobilization steps were carried out at a flow rate of 25 μL/min in 1×HBS-EP+buffer (GE Life Sciences; 10× Stock diluted before use). The sensor surfaces were activated for 7 min with a mixture of NHS (0.05 M) and EDC (0.2 M). The Anti-Fc antibodies were injected over all 4 flow cells at a concentration of 25 ug/ml in 10 mM sodium acetate, pH 4.5, for 7 min. Ethanolamine (1 M, pH 8.5) was injected for 7 min to block any remaining activated groups.
Off-rate and kinetic binding experiments were performed at 25° C. using 1×HBS-EP+buffer. Test and control antibodies were injected over the anti-Fc surface at concentrations of 5-10 μg/mL for 12 seconds at a flow rate of 10 μL/min on flow cells 2, 3 and 4, followed by a buffer wash for 30 seconds at the same flow rate. […] After capturing ligand (antibody) on the anti-Fc surface, the analyte (hROR1, Fz or Kr domains, Acro Biosystems, Delaware) was bound for 180 seconds, followed by a 600 second dissociation phase at a flow rate of 50 μL/min. Between each ligand capture and analyte binding cycle, regeneration was carried out using 2 injections of 10 mM Glycine pH 2.0 for 30 seconds at 30 μL/min, followed by a 30 second buffer wash step.

Row | Kd [nM] | koff [s⁻¹] | kon [M⁻¹ s⁻¹] | Binder
1 | 97.6 | 0.05 | 539000 | SRP1943-C02 (antibody, IgG1, V domains shown, Parent of SRP2193; His/FLAG-tagged IgG1, cell-free; also called Antibody 70) VH: EVQLVESGGGLAQPGGSLRLSCAAPGFNINDYYIHWVRQAPGKGLEWVGAIDPNSGSTDYADSVKGRFAISADTSKNTAYLQMNSLRAEDTAVYYCARSRWFRVLWSYVFDYWGQGTLVTVSS VL: not shown

The binders below were run against T2, human ROR1 (hROR1) (human, UniProt Q01973 30-937) (assay: flow cytometry, HCT116-hROR1 cells).
T2 construct: On HCT116-hROR1 transfectants, Mino cells or Ntera-2 cells, as the assay of each row says; also called receptor tyrosine kinase like orphan receptor 1
Protocol: A mix of ROR1 positive and negative cells was prepared as follows. Ror1 negative cells were washed 2× in PBS then incubated in PBS containing 1 nM CellTrace™ Oregon Green488® (Life Technologies) at 37° C. for 30 minutes. Cells were then washed 2× with RPMI w/10% fetal calf serum (or FCS), washed 2× with FACS buffer (PBS+0.5% BSA), suspended thoroughly in ice-cold FACS buffer at a final concentration of 4×10^6 cells/ml and kept on ice. ROR1 positive cells were washed 2× in PBS and suspended with ice-cold FACS buffer at 4×10^6 cells/ml. ROR1 positive and negative cells were then mixed to obtain a 1-1 cell suspension and seeded at 50 μl per well on 96 well polypropylene plates. 50 μl of 6-12 point dilutions of anti-ROR1 variants starting from concentrations of ˜100-200 nM antibody was dispensed using BioMekFX (Beckman Coulter) into each well. Cells were then incubated on ice for 1 hr, washed with FACS buffer and incubated for 1 hr on ice with 50 μl FACS buffer containing 2.5 μg/ml Alexa647-conjugated Goat Anti-Human IgG dispensed using BioMekFX (Beckman Coulter). Cells were then washed 2× with FACS buffer and fixed for 10 minutes in 200 μl PBS with 2% PFA prior to fluorescence detection. Samples were acquired using a Beckton Dickinson LSRII FACS. Mean Fluorescence Intensity of ROR1 antibody binding was analyzed using FlowJo® software (Tree Star, Inc.).

Row | Bmax (MFI) | Kd [nM] | Binder
2 | 15100 | 1.75 | SRP2193-C05 (antibody, IgG1, V domains shown, His/FLAG-tagged IgG1, cell-free; also called Antibody 91) VH: EVQLVESGGGLVQPGGSLRLSCAASGFNIKHSYIHWVRQAPGKGLEWVGAIDPHNGSTASADSVKGRFTISADTSKNTAYLQMNSLRAEDTAVHYCARSRWFRVLWSYVIDYWGQGTLVTVSS VL: not shown
3 | 14400 | 15.6 | SRP2193-E04 (antibody, IgG1, V domains shown, His/FLAG-tagged IgG1, cell-free; also called Antibody 74) VH: EVQLVESGGGLVQPGGSLRLSCAASGFNINDRYIHWVRQAPGKGLEWVGVIDPSLGSTIDADSVKGRFTISADTSRNTAYLQMNSLRAEDTAVYYCARSRWFRVLWSYVFDYWGQGTLVTVSS VL: not shown
4 | 16300 | 0.46 | SRP2193-E09 (antibody, IgG1, V domains shown, His/FLAG-tagged IgG1, cell-free) VH: EVQLVESGGGLVQPGGSLRLPCAASGFNIGAYYIHWVRQAPGKGLEWVGAIDPGSGYTVPADSVKGRFTISADTSKNTAYLQMNSLRAEDTAVYYCARSRWYRVLWSYVFDYWGQGTLVTVSS VL: not shown
5 | 15700 | 0.14 | SRP2193-C03 (antibody, IgG1, V domains shown, His/FLAG-tagged IgG1, cell-free) VH: EVQLVESGGGLVQPGGSLRLSCAASGFNINYSYIHWVRQAPGKGLEWVGAIEPKSGSTASADSVKGRFTISADTSKNTAYLQMNSLRAEDAAVYYCARSRWYRVLWSYVLDYWGQGTLVTVSS VL: not shown
6 | 15000 | 0.72 | SRP2193-C08 (antibody, IgG1, V domains shown, His/FLAG-tagged IgG1, cell-free; also called Antibody 99) VH: EVQLVESGSGLVQPGGSLRLSCAASGFNINHYYIHWVRQAPGKGLEWVGAIDPYPGSTYNADSVKGRFTISADTSKNTAYLQMNSLRAEDTAVYYCARSRWFRVLWSYVFDYWGQGTLVTVSS VL: not shown
7 | 15700 | 0.93 | SRP2193-D03 (antibody, IgG1, V domains shown, His/FLAG-tagged IgG1, cell-free; also called Antibody 93) VH: EVQLVESGGGLVQPGGSLRLSCAASGFNINDHYIHWVRQAPGKGLEWVSAIDPNTGSTVNADSVKGRFTISADTSKNTAYLQMNSLRAEDTAVYYCARSRWSRVLWIYVFDYWGQGTLVTVSS VL: not shown
8 | 15900 | 7.14 | SRP2193-E10 (antibody, IgG1, V domains shown, His/FLAG-tagged IgG1, cell-free; also called Antibody 72) VH: EVQLVESGGGLVQPGGSLRLSCAASGFNIYDYYIHWVRQAPGKGLEWVGAIDPVNGSTNNADSVKGRFTISADTSKNTAYLQMNSLRAEDTAVYYCARSRWYRVLWSYVFDYWGQGTLVTVSS VL: not shown
9 | 14500 | 4.16 | SRP2193-C06 (antibody, IgG1, V domains shown, His/FLAG-tagged IgG1, cell-free) VH: EVQLVESGGGLVQPGGSLRLSCAASGFNIIVHYIHWVRQAPGKGLEWVSAIDPISGSTQWADSVKGRFTISADTSKNTAYLQMNSLRAEDTAVYYCARSRWRRALWIYVFDYWGQGTLVTVSS VL: not shown
10 | 15400 | 3.11 | SRP2193-D07 (antibody, IgG1, V domains shown, His/FLAG-tagged IgG1, cell-free) VH: EVQLVESGGGLVQPGGSLRLSCAASGFNIIDYNIHWVRQAPGKGLEWVTAIGPADGSTVNADSLKGRFTISADTSKNTAYLQMNSLRAEDTAVYYCARSRWLRVLWSYVFDYWGQGTLVTVSS VL: not shown
11 | 15900 | 0.39 | SRP2193-C01 (antibody, IgG1, V domains shown, His/FLAG-tagged IgG1, cell-free) VH: EVQLVESGGGLVQPGGSLRLSCAASGLNINDHYIHWVRQAPGKGLEWVGTIDPKSGSTHVADSVKGRFTISADTSKNTAYLQMNSLRAEDTAVYYCARSRWFRVLWSYVFDYWGQGTLVTVSS VL: not shown
12 | 16400 | 8.13 | SRP2193-E02 (antibody, IgG1, V domains shown, His/FLAG-tagged IgG1, cell-free) VH: EVQLVESGGGLVQPGGSLRLSCAASGFNIKDYYIHWVRQAPGKGLEWVGSIDPTSGSTVIADSVKGRFTISADTSKNTAYLQMNSLRAEDTAVYYCARSRWWRVLWSYVFDYWGQGTLVTVSS VL: not shown
13 | 15200 | 1.25 | SRP2193-D11 (antibody, IgG1, V domains shown, His/FLAG-tagged IgG1, cell-free; also called Antibody 76) VH: EVQLVESGGGSVQPGGSLRLSCAASGFNINAYYIHWVRQAPGKGLEWVGAIDPNTGSTVDADSVKGRFTISADTSKNTAYLQMNSLRAEDTAVYYCARSRWFRVLWSYVFDYWGQGTLVTVSS VL: not shown
14 | 15500 | 0.6 | SRP2193-B07 (antibody, IgG1, V domains shown, His/FLAG-tagged IgG1, cell-free) VH: EVQLVESGGGLVQPGGSLRLSCAASGFNINNSYIHWVRQAPGKGLEWVGAIDPNSGSTLSADSVKGRFTISADTSKSTAYLQMNSLRAEDTAVYYCARSRWFRVLWSYIFDYWGQGTLVTVSS VL: not shown
15 | 14700 | 1.08 | SRP2193-B10 (antibody, IgG1, V domains shown, His/FLAG-tagged IgG1, cell-free; also called Antibody 88) VH: EVQLVESGGGLVQPGGSLRLSCAASGFNIADYYVHWVRQAPGKGLEWVGAIDPNSGYTVKADSVKGRFTISADTSKNTAYLQMNSLRAEDTAVYYCARSRWLRVLWSFVFDYWGQGTLVTVSS VL: not shown
16 | 15400 | 0.47 | SRP2193-B05 (antibody, IgG1, V domains shown, His/FLAG-tagged IgG1, cell-free; also called Antibody 109) VH: EVQLVESGGGLVQPGGSLRLSCAASGFNINQYYIHWVRQAPGEGLEWVGAIDPIGGSTHLADSVKGRFTISADTSKNTAYLQMNSLRAEDAAVYYCARSRWYRVLWSYVFDYWGQGTLVTVSS VL: not shown
17 | 14300 | 1.15 | SRP2193-B08 (antibody, IgG1, V domains shown, His/FLAG-tagged IgG1, cell-free; also called Antibody 90) VH: EVQLVESGGGLVQPGGSLRLSCAASGFNIKDYYIHWVRQAPGKGLEWVSAIDPSPGATLDADSVKGRFTISADTSKNTAYLQMNSLRAEDTAVYYCARSRWFRVLWSYALDYWGQGTLVTVSS VL: not shown
18 | 16600 | 0.32 | SRP2193-C10 (antibody, IgG1, V domains shown, His/FLAG-tagged IgG1, cell-free; also called Antibody 123) VH: EVQLVESGGGLVQPGGSLRLSCAASGFNINNAYIHWVRQAPGKGLEWVGAIDPRSGSTISADSMKGRFTISADTSKNTAYLQMNSLRAEDTAVYYCARSRWFRVLWSFGFDYWGQGTLVTVSS VL: not shown
19 | 7610 | 5.35 | SRP2194-A03 (antibody, IgG1, V domains shown, His/FLAG-tagged IgG1, cell-free) VH: EVQLVESGGGLVQPGGPLRLSCAASGFNITGYYIHWVRQAPGKGLEWVGYITPNSGTTYSADSVKGRFTISADTSKNTAYLQMNSLRAEDTAVYYCARDSRRYVRPLDYWGQGTLVTVSS VL: not shown
20 | 15800 | 0.3 | SRP2196-A01 (antibody, V domains shown, His/FLAG-tagged IgG1) VH: EVQLVESGGGLVQPGGSLRLSCAASGFNITGYYIHWVRQAPGKGLEWVGQISPNSGYTYYADSVKGRFTISADTSKNTAYLQMNSLRAEDTAVYYCARDSRRYVRGWDYWGQGTLVTVSS VL: QAVVTQESALTTSPGETVTLTCRSSTGAVTTSNYANWVQEKPDHLFTGLIGGTNKRAPGVPARFSGSLIGDKAALTITGAQTEDEAIYFCALWYSNLWVFGGGTKLTVL
21 | 8240 | 0.13 | SRP2194-A09 (antibody, IgG1, V domains shown, His/FLAG-tagged IgG1, cell-free; also called Antibody 130) VH: EVQLVESGGGLVQPGGSLRLSCAASGFNITGYYIHWVRQAPGKGLEWVGYITPLSGATYRADSVKGRFTISADTSKNTAYLQMNSLRAEDTAVYYCARDSRRYVRPFDYWGQGTLVTVSS VL: not shown
22 | 8250 | 0.16 | SRP2194-A10 (antibody, IgG1, V domains shown, His/FLAG-tagged IgG1, cell-free) VH: EVQLVESGGGLVQPGGSLRLSCAASGFNITQYYIHWVRQAPAKGLEWVGYISPNSGSTHIADSVKGRFTISADTSKNTAYLQMNSLRAEDTAVYYCARDSRRYVRPFDYWGQSTLVTVSS VL: not shown
23 | 8250 | 0.3 | SRP2194-A08 (antibody, IgG1, V domains shown, His/FLAG-tagged IgG1, cell-free) VH: EVQLVESGGGLVQPGGSLRLSCAASGFNITGYHIHWVRQAPGKGLEWVGYIAPSSGYTYDADSVKGRFTISADTSKNTAYLQMNSLRAEDTAVYYCARDSRRYVRPFDYWGQGTLVTVSS VL: not shown
24 | 8660 | 0.1 | SRP2194-A11 (antibody, IgG1, V domains shown, His/FLAG-tagged IgG1, cell-free; also called Antibody 135) VH: EVQLVESGGGLVQPGGSLRLSCAASGFNITQYYIHWVRQAPGKGLEWVGYISPNSGYTTDADSVKGRFTISADTSKNTAYLQMNSLRAEDTAVYYCARDSRRYVRPFDYWGQGTLVTVSS VL: not shown
